T1: RIG-I Δ2CARD C268F (human, UniProt O95786 232-925, C268F)
T1 sequence: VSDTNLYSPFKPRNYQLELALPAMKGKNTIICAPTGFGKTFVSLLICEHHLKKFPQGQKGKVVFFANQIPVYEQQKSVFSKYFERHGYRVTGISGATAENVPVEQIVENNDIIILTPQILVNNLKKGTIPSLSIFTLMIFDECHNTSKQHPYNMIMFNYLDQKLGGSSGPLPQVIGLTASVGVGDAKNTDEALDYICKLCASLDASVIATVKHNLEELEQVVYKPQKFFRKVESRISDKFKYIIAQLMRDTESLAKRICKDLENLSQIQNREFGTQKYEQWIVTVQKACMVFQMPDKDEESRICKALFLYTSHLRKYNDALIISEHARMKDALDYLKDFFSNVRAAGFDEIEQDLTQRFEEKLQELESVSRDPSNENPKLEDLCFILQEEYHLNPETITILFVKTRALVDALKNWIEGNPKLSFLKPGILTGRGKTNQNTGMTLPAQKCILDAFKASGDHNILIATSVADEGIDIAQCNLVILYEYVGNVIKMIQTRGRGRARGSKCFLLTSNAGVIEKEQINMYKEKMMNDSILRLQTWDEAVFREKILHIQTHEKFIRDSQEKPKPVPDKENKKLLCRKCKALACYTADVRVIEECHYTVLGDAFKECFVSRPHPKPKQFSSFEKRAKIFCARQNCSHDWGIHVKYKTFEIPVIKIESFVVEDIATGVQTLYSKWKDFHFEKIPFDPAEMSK

T2: RIG-I C268F (human, UniProt O95786 1-925, C268F)
T2 sequence: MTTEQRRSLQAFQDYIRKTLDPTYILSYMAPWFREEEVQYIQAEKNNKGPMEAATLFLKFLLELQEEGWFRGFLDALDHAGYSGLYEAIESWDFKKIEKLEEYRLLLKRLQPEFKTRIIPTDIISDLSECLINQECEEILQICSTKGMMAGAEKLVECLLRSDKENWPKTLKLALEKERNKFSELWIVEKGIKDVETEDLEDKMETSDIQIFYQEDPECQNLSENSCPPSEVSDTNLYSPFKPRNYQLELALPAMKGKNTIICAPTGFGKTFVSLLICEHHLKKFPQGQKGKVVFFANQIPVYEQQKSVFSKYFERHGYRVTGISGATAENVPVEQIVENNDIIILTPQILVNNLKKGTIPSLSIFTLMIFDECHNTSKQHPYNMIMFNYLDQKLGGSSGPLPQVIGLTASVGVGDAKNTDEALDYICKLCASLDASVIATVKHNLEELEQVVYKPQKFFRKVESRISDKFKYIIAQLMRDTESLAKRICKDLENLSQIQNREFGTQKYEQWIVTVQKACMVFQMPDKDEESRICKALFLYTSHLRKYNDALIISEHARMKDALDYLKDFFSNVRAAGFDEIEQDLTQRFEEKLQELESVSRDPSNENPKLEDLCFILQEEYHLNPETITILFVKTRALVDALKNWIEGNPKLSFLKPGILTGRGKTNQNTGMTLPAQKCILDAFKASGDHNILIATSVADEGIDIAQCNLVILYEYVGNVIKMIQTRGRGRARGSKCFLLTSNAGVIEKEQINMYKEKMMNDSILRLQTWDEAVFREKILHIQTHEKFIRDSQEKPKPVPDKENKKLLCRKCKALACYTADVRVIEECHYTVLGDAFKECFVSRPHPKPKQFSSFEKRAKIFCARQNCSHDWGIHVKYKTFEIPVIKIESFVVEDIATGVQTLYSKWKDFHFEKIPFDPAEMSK

T3: RIG-I wild type (human, UniProt O95786 1-925)
T3 sequence: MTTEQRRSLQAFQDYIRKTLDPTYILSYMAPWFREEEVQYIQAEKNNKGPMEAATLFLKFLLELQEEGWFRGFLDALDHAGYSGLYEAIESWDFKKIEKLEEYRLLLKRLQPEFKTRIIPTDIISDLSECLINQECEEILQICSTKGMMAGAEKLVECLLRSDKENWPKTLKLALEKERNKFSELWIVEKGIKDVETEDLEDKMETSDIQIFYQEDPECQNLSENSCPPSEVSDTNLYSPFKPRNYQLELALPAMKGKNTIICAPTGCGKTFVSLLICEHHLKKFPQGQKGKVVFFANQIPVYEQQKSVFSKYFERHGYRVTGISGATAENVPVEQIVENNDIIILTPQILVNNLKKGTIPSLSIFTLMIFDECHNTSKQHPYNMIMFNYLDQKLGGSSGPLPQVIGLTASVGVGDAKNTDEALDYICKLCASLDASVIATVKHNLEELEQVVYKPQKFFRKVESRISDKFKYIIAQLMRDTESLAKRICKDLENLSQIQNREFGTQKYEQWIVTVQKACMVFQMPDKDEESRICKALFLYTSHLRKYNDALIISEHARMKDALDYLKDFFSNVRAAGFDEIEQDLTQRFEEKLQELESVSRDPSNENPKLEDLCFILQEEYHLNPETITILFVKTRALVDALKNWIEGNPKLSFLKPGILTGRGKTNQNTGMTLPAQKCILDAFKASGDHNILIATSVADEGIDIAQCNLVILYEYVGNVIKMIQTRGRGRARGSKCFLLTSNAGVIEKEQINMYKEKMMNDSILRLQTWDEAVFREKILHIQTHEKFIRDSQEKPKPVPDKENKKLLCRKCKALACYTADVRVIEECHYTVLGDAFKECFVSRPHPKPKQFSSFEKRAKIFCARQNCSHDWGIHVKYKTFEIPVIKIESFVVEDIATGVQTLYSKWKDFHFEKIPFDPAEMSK


How the values were obtained:
[1] = target: T1, RIG-I Δ2CARD C268F; assay: crystal structure; co-crystallized with ADP-BeFx or ATP; no nucleotide bound in structure; Fluorescence anisotropy: 25 mM HEPES pH 7, 50 mM KCl, 5 mM MgCl2, 1 mM DTT, +/- 5 mM ATP, 10 nM RNA, room temperature; settings: protein: recombinant; tags: N-terminal His-tag (insect cells) or His-SUMO3 cleaved off (E. coli); blunt, palindromic self-duplex
[2] = target: T2, RIG-I C268F; assay: fluorescence anisotropy; no ATP, 5 mM Mg2+; Fluorescence anisotropy: 25 mM HEPES pH 7, 50 mM KCl, 5 mM MgCl2, 1 mM DTT, +/- 5 mM ATP, 10 nM RNA, room temperature; settings: protein: recombinant; tags: N-terminal His-tag; label: 5'-Cy3; hairpin with non-base-paired ends
[3] = target: T3, RIG-I wild type; assay: as above; settings: protein: recombinant; tags: N-terminal His-tag; label: 5'-Cy3; hairpin with non-base-paired ends

| Binder | binding result [1] | binding result [2] | binding result [3] |
| --- | --- | --- | --- |
| 14mer dsRNA (dsRNA) RNA 1: CGACGCUAGCGUCG RNA 2: CGACGCUAGCGUCG | binds | – | – |
| CCACCCGCCCCCCUAGUGAGGGGGGCGGGCC (structured_RNA) [Cy3-hpRNA (14mer stem hairpin)] | – | binds | binds |
